Assay results taken from patent US10111948B2, “Synthetic hapten carrier compositions and methods” (TRIA BIOSCIENCE CORP., priority 2014, dated 2018).

Key:
[1] = test system: antisera isolated from TCC^Nic4 immunized mice; assay: competitive ELISA for specificity of nicotine binding by antisera
Experimental: FIG. 6 presents data showing specificity of nicotine binding by antisera isolated from TCC^Nic4 immunized mice determined by competitive ELISA for nicotine, cotinine, and acetylcholine.
Antibody affinity and the nicotine binding capacity of the anti-nicotine antibodies evoked in TCC^Nic4-immunized mice were examined. Mice were immunized with 2.5 μg TCC^Nic4 on days 0, 14, and 146, and antisera were obtained. Nicotine binding to antisera isolated from TCC^Nic4 immunized mice was determined by competitive ELISA for nicotine, cotinine, and acetylcholine.

C57BL/6 mice [2] = assay: nicotine-induced hypoactivity (locomotor activity, open field); assay type: in vivo; conditions: 10 daily 10 μg nicotine injections, 7 day rest, 10 μg challenge
Experimental: C57Bl/6 mice were immunized with TCC^Nic4 and KLH^Nic100 in the absence and presence of GLA-SE adjuvant. Immunized mice were sensitized to nicotine with 10 daily injections (10 μg). Following a 7 day rest period, mice were challenged with nicotine (10 μg), and locomoter activity was monitored using infrared beam-equipped open field chambers. The PBS-immunized group was not challenged with nicotine.
Furthermore, mice immunized with TCC^Nic4 and KLH^Nic100 with and without GLA-SE as described above were evaluated for nicotine-induced hypoactive behavior with nicotine challenges as described in Rosenberg et al. (2013, Hum. Gene Ther. 24:595-603). Immunized mice were sensitized with 10 daily injections of 10 μg of nicotine. After a 7 day rest period, the mice were then challenged with 10 μg of nicotine, and locomotor activity was monitored using infrared beam-equipped open field chambers. The mice immunized with PBS were not challenged with nicotine.

C57BL/6 mice [3] = assay: anti-nicotine antibody titers by ELISA in immunized C57BL/6 mice; assay type: in vivo
Experimental: FIGS. 3A-B illustrate anti-nicotine antibody titers as measured by ELISA. C57Bl/6 mice (n=5/group) were immunized (days 0, 14, and 146) with 2.5 μg of the trimeric coiled-coil peptide vaccine comprising peptide monomers with 16 lysines conjugated to an average of 4 nicotines per monomer. Control groups were administered KLH-Nic22 or PBS. Vaccines were formulated with (A) Alum adjuvant or (B) GLA-SE adjuvant. Sera were collected at the indicated times and assayed for anti-nicotine antibodies by ELISA.
FIG. 5 illustrates titer to nicotine in mice (C57Bl/6 mice (n=5/group)) immunized with the indicated doses of TCC^Nic4 plus GLA-SE adjuvant. Day 35 sera were assayed for anti-nicotine antibodies by ELISA.
FIGS. 10A-B show comparative antibody responses between TCC^Nic4 and KLH^Nic100. C57Bl/6 mice were immunized with each conjugate in the absence and presence of GLA-SE adjuvant. (A) Serum was assayed for anti-nicotine antibody responses by ELISA. (B) Data showing serum sequestration of nicotine. Percent inhibition of nicotine entry into the brain is indicated.
Trimeric coiled coil structures comprising three peptide monomers having an amino acid sequence set forth in SEQ ID NO:13 were conjugated as described above with nicotine to provide constructs comprising an average of 0.6, 4, and 14 nicotine molecules per monomeric peptide. […] Sera were collected periodically for approximately 20 weeks after the primary immunization, and anti-nicotine antibody titers were determined by ELISA.
In the same experiment, groups of mice were immunized with three non-TCC nicotine carriers, FGK4.5^nic19 and IgG2^nic17 and KLH^nic22. […] Sera were collected and measured for anti-nicotine and anti-carrier antibody titers by ELISA using, respectively, nicotine conjugated BSA, non-conjugated trimeric coiled-coil peptide, and non-conjugated KLH, FGK4.5, and IgG2 carriers used in the respective vaccine composition. Each sample was assayed in triplicate wells along with standard control sera, and the mean midpoint and endpoint titers (+/−SEM) were determined. […]

[4] = relative Kd of serum IgG by competitive ELISA; assay type: binding, mice
Experimental: FIGS. 7A-B illustrate antibody avidities of antisera from mice immunized with TCC conjugated to nicotine.
Relative Kd values of serum IgG were determined by competitive ELISA. Dilutions of antiserum were prepared and incubated with soluble nicotine (0.0001-100 μM). After equilibrium was achieved, binding to bovine serum albumin (BSA) conjugated to nicotine was measured. […] Each sample was assayed in triplicate wells along with standard control sera, and the mean midpoint and endpoint titers (+/−SEM) were determined.

[5] = serum nicotine binding capacity (inhibition RIA); conditions: serum of immunized mice
Experimental: Kd values were used to calculate total antibody concentrations according to the law of mass action equation: Kd=[Nic][Ig]/[Nic−Ig].
Plasma was assayed for nicotine binding capacity at various times following immunization. Plasma aliquots were spiked with increasing nicotine levels (0.0001-10 μM) (serum nicotine levels in heavy smokers is 100 ng/ml or 0.617 μM) and then subjected to inhibition RIA (with H^3-Nicotine as the tracer and non-radiolabeled nicotine as the inhibitor) to calculate the total nicotine binding IgG in serum (see, e.g., Moreno et al., 2010, Mol. Pharm. 7:431-41; Muller, 1983, Methods Enzymol. 92:589-601). Immobilized protein A was used to capture IgGs from the serum to separate them from free nicotine. Aliquots of both the protein A eluate and the serum supernatant were subjected to liquid scintillation counting to quantify the amount of tracer in each fraction.

mice = assay: nicotine distribution in serum/plasma and brain after nicotine injection in immunized mice; assay type: in vivo
Experimental: FIGS. 9A-C show the levels of nicotine in sera and brains of mice (n=5/group) immunized with PBS, TCC^Nic4 with and without alum and GLA-SE adjuvants, or KLH conjugated to nicotine (KLH^Nic22) with and without alum and GLA-SE adjuvants. Immunized mice were injected with a dose of nicotine tartrate equivalent to the nicotine in 3 cigarettes (1.2 μg). Five minutes later the mice were sacrificed, tissues removed, and the amount of nicotine in (A) sera and (B) brain were measured by mass spectrometry. (C) The calculated percent inhibition of nicotine entry into the brain is shown.
FIGS. 10A-B show comparative antibody responses between TCC^Nic4 and KLH^Nic100. C57Bl/6 mice were immunized with each conjugate in the absence and presence of GLA-SE adjuvant. […]
To test antibody function, TCC^Nic4 or KLH^Nic22 (non-adjuvanted; +Alum; or +GLA-SE) immunized mice were injected with free nicotine equivalent to 3 cigarettes. […] Nicotine was extracted from the plasma and brain tissues and then quantified by LC/MS. The amounts of nicotine in plasma (ng/ml) and brain (ng/g) were determined. […] Data were analyzed using GraphPad Prism (San Diego, Calif.). Statistically significant differences between 2 groups were calculated by Student's 2-tailed t-test on log transformed data and between 3 or more groups by 1-factor analysis of variance (ANOVA) followed by post-hoc analysis. […]

Row | Molecule | binding by antibodies induced by TCC^Nic4 immunization ([1]; competitive ELISA) | IC50 relative to nicotine ([1]; competitor in competitive ELISA) | hypoactivity behavior after nicotine challenge (C57BL/6 mice [2]; non-adjuvanted vaccine) | prevention of nicotine sensitization and hypoactivity behavior (C57BL/6 mice [2]; with GLA-SE adjuvant) | anti-nicotine antibody titer compared with KLH^Nic22 (C57BL/6 mice [3]; 2.5 μg on days 0, 14, 146, FIG. 3) | anti-nicotine antibody titers (C57BL/6 mice [3]; adjuvanted (Alum or GLA-SE), 2.5 μg on days 0, 14, 146, sera for approx. 20 weeks) | dose achieving the maximum anti-nicotine antibody response (C57BL/6 mice [3]; adjuvanted with GLA-SE, doses 0.1, 0.5, 1, 2.5 μg, day 35 sera) | specificity of antibodies induced by immunization ([1]; 2.5 μg on days 0, 14, 146) | antibody affinity compared to KLH^Nic22 ([4]; in the absence of adjuvant) | antibody affinity relative to antibodies evoked by KLH^Nic22 ([4]; in the presence of GLA-SE adjuvant) | Kd ([4]; in the presence of GLA-SE adjuvant, read-out: affinity of the antibodies evoked by immunization (Kd)) | nicotine binding capacity compared with control KLH conjugate [5] | nicotine in sera and brain, immunogen compared with KLH^Nic22 (mice; combined with either adjuvant (Alum or GLA-SE), 5 min after nicotine injection) | circulating nicotine prevented from entering the brain (mice; plus GLA-SE adjuvant, nicotine dose equivalent to 3 cigarettes, 5 min)
1 | CN1C(=O)CC[C@H]1c1cccnc1 [cotinine] | did not bind physiological concentrations | 1000 fold | – | – | – | – | – | – | – | – | – | – | – | –
2 | TCC^Nic4: trimeric coiled coil of three SEQ ID NO:13 monomers conjugated with average 4 nicotine 6-hexanoic acid per monomer (conjugate, also: trimer (trimeric coiled coil of three monomers), ~4 nicotine 6-hexanoic acid haptens per monomer (sites not given here)) KKIEKRIEKIEKRIKKIEKRIKKIEKRIKKIEKRIKKAKFVAAWTLKAAAYQNPTTYISVK | – | – | hypoactivity observed | appeared equivalent in preventing nicotine sensitization and subsequent hypoactivity behavior | consistently greater | robust antibody titers | ≤ 100 ng | nicotine-specific | higher affinity antibodies | an order of magnitude greater | ~1 nM | significantly larger | superior immunogen | greater than 90%
